The supplement of paper PMC10126150
± gives the standard deviation of the averaged measurements.

Tested on: ATP
Experiment: switch fluorescence ratio, 500 uM ATP over buffer (Cy3 cluster intensity, sum of 5 cycles each) (fold (ratio)); higher = stronger signal-on switching upon ATP binding; sequences stand for … in TCGTCGGCAGCGTCAGATGTGTATAAGAGACAGTTTTTTTTTTTTTTTTTTTTTTTTT…TC
Conditions: aptamer strand: ATP DNA aptamer (quencher-CACCTGGGGGAGTATTGCGGAGGAAGG + anchor), 100 nM annealed; ATP concentration: 500 uM
Procedure, shortened: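 Clusters with intensities outside 100-1000 RFU were excluded. The remaining Cy3-labelled switching-strand clusters on a modified Illumina MiSeq flow-cell had been annealed to 100 nM quencher-labelled ATP aptamer and imaged in selection buffer, then after 15 min with 500 uM ATP at 22 °C, for five cycles separated by NaOH stripping and re-annealing. The fluorescence ratio, averaged per switch-domain sequence, is each cluster's summed target-cycle Cy3 intensity over its summed buffer-cycle Cy3 intensity.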
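Also: ATP exposure 15 min at 22 °C before imaging.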

Sequence	switch fluorescence ratio
AGTTTGGCAT	0.9958 ± 0.0071
CCGTTTTTAC	4.11 ± 0.83
CCATGTGAAG	0.992 ± 0.027
TGGAAAAGGG	1.032 ± 0.0082
TGCTAGAAGT	0.9792 ± 0.003
AAAACGAGTG	1.02 ± 0.023
ACTGTGCACC	1.05 ± 0.052
TGGTGGGGCA	0.977 ± 0.064
GAGTAGGGGT	1.01 ± 0.022
CAAATGGTTA	0.974 ± 0.01
CATTTTTTGG	0.998 ± 0.019
AATACCCGGG	1.021 ± 0.0045
GAGGGTTTGT	0.973 ± 0.039
TACTTTCCCG	1.29 ± 0.13
CGCGGTTGC	1.24 ± 0.038
ACGACTTTTT	1.03 ± 0.063
GCTATTGGAA	0.993 ± 0.022
GTGTATTAGT	0.9656 ± 0.003
CTACTAATTA	1.026 ± 0.0031
CTAGCTGTAG	1.04 ± 0.03
GGCATTGAGG	0.988 ± 0.04
TAAATGAGGA	1.03 ± 0.047
TTTGAGGGTC	0.991 ± 0.037
ATCGTGTTGT	1.02 ± 0.015
GGGGGCGGTA	1.02 ± 0.059

Sequence	switch fluorescence ratio
GAGTCAAGGG	0.998 ± 0.021
GAATCATTTT	1.02 ± 0.036
TCAGGGGGGA	1 ± 0.04
CAACGTTTTT	1.01 ± 0.037
AGAGAAGTGA	0.986 ± 0.032
CTGCAAGGGT	1.214 ± 0.011
TGTGTTAGG	1.01 ± 0.03
TATAAGATTA	1.015 ± 0.0027
CAATTTTGGT	1.01 ± 0.031
GTATGGGGGT	0.963 ± 0.024
GGTCGTTTCG	1.01 ± 0.018
GGGGGTTAAT	1.013 ± 0.0037
ATCAGAATGA	1.013 ± 0.0023
TTTTTGGCCC	0.9649 ± 0.0018
CGGTGGGATG	0.9784 ± 0.0072
TCGCTGGTTG	0.996 ± 0.022
GTGAATGGGG	0.969 ± 0.042
GGACTGTTTG	1.01 ± 0.041
ATGACGCGTC	0.982 ± 0.045
TAAGGTGAGG	1.04 ± 0.023
TCACAAGTTG	1.01 ± 0.019
TGTTTTTTTC	1.06 ± 0.04
TGGGATGTTG	1 ± 0.052
CAGGATTTGG	0.985 ± 0.013
CGGTCCTGAA	1.03 ± 0.002

Sequence	switch fluorescence ratio
TAAATCTAGA	1.016 ± 0.01
GGCGCAAGCT	1.02 ± 0.025
TGAGGGGGGG	0.999 ± 0.034
GATTGTGTTA	1.01 ± 0.043
ACTTCAGGGA	1.01 ± 0.024
CGATTAGGTA	1 ± 0.041
CTTTCAATGG	1.07 ± 0.015
AATTGTATGG	1.04 ± 0.044
AATTTTAATT	1 ± 0.027
TTTTTGATAC	1.063 ± 0.0034
ATTAGTGTCA	1 ± 0.035
TTTTTGGCGG	0.978 ± 0.038
TCCGTTGGGG	1.05 ± 0.15
GTGTTTGGGA	0.997 ± 0.033
ATAGGGATTG	0.996 ± 0.031
TCTTGGATGG	0.986 ± 0.04
GCCGTTGGAA	1.01 ± 0.024
ACTTGTGCTT	0.9728 ± 0.0027
GAGTCGAGGG	0.961 ± 0.017
GCTATCTGGA	0.998 ± 0.031
TTTAACGCAT	1.24 ± 0.12
GTTACGGGGA	1.02 ± 0.051
TAGCTGTTGT	0.993 ± 0.027
CGTTTAATGG	0.984 ± 0.0086
AGGCACTTTT	1.04 ± 0.015

Sequence	switch fluorescence ratio
ATTAGTAAGA	0.975 ± 0.011
GCTCCAGTTA	1.178 ± 0.0045
TGAATGCTGA	0.961 ± 0.017
ATTATGGACG	1.06 ± 0.073
GTCAGGAAGT	1.02 ± 0.016
ATGTAGGAAC	0.999 ± 0.012
CGTGCGGCGT	0.9829 ± 0.0026
AAGCATTGTT	0.999 ± 0.035
TAATATCGGG	0.98 ± 0.027
CGAGGGGCAC	0.997 ± 0.013
TAGCATCTGG	0.98 ± 0.039
TCCATAGGGC	1.002 ± 0.0048
TAATATAGTG	1.02 ± 0.045
TTCTCTAGAT	1.056 ± 0.0066
TGCGGCTGGG	0.978 ± 0.019
GATTGGTCTT	0.976 ± 0.03
GATGGGGGCA	1 ± 0.086
GATTTGTAGG	1.01 ± 0.0069
CTTGAAAAGC	1.05 ± 0.021
AAGGCTTCTT	1 ± 0.015
TAATTTTATA	0.9789 ± 0.0046
TAAGCGCAGA	1.01 ± 0.03
CCTCATGACA	1.263 ± 0.0096
ACGATCATTT	1.048 ± 0.0024
TCTTGGGATT	0.981 ± 0.0029

Sequence	switch fluorescence ratio
ATTTGATCTG	0.985 ± 0.014
TCCTTCTTTA	1.38 ± 0.43
TTCGTATATA	1.01 ± 0.018
TTTAGGGTGC	1.03 ± 0.079
CGGTTTTTGC	1.03 ± 0.058
CTGAGGGAGC	1.09 ± 0.061
TCATGTACCG	1.05 ± 0.044
GGGGGTGGGG	1.01 ± 0.037
CCGTGAGGGT	1.02 ± 0.038
GGGATCCATG	1.01 ± 0.019
CTCTTTGGGG	0.976 ± 0.013
AGGGCGGATT	1.01 ± 0.031
TTCGATAATC	1.15 ± 0.16
AATGGTAAGG	0.963 ± 0.033
GCGGGGGAAG	1 ± 0.02
TCAGGATTAG	1.02 ± 0.02
CTGTCAGATT	0.974 ± 0.025
CGGACGTTTT	1.17 ± 0.13
AGAACTCACC	1.19 ± 0.049
CTGGGGGGTA	0.997 ± 0.028
AAATGCGTTA	1.01 ± 0.02
TGCAATGTTG	1.04 ± 0.047
TCAATGGGTA	0.991 ± 0.021
AGTTTCTACG	0.994 ± 0.015
GGTCGATGGT	0.99 ± 0.011

Sequence	switch fluorescence ratio
GAGTACCCGG	1 ± 0.018
TAGAAGGGAT	0.987 ± 0.016
TAGCGATGCG	1.031 ± 0.0042
GGAAGGTGGG	1.15 ± 0.25
CCAGACTTTT	0.999 ± 0.043
TGCACGTTGC	1.02 ± 0.03
TGAGGGGT	0.958 ± 0.027
ATTAACTGCT	0.9932 ± 0.0058
TTACTTATTT	1.04 ± 0.035
ATAAGGAAGT	1.02 ± 0.028
TCCTTGGTCG	1.04 ± 0.031
TGTTTTATGG	0.9871 ± 0.008
ATTATCTAAT	1 ± 0.017
ATTTGTTGT	0.973 ± 0.052
GGAGAATATT	1.02 ± 0.059
CAGGGTTAAT	1.012 ± 0.0094
CGTGAGTTGG	0.992 ± 0.014
GAGAGAGGGT	0.997 ± 0.014
ATAAATGTCA	1.01 ± 0.026
TTTGGGCGGT	1.04 ± 0.12
GGTATTATTG	0.998 ± 0.023
TTAGCAAATA	1.155 ± 0.0099
AAGGCCGTGA	1.03 ± 0.085
GAACTTGGGA	0.983 ± 0.058
ATATTTTCAG	0.994 ± 0.012

Sequence	switch fluorescence ratio
AGGAACGTAC	1.61 ± 0.057
TCTTGAAGG	0.953 ± 0.023
TACGTTCAGG	1.02 ± 0.011
GGGGGGCAGT	1 ± 0.023
TGCGAGATTT	1.01 ± 0.018
ATTCTACGGA	1.02 ± 0.021
TGATTGGGGT	1.01 ± 0.024
CGTTGGGACG	1.0042 ± 0.00087
GAAATGGAGG	0.995 ± 0.027
AACGGGAGGG	1.04 ± 0.011
TCTGGCCTTC	1.09 ± 0.1
AGGTCAGCCT	1.03 ± 0.029
AATTTATTGG	1.01 ± 0.013
TCACAAATGA	1.013 ± 0.0077
GTATGGGGCG	1.01 ± 0.081
ATTATCGTAG	0.994 ± 0.035
GAGAGAGTGA	0.963 ± 0.025
GGTTAAATTT	0.987 ± 0.021
CAATAGGATG	1.012 ± 0.0067
TAGGTTAAAA	0.9786 ± 0.0041
TTATATTAGT	0.9919 ± 0.0056
GTCTACATTG	0.997 ± 0.01
AAGAAAGGAA	0.951 ± 0.029
GGGGGCCGGC	1.028 ± 0.0031
AATTAGTTAT	0.9835 ± 0.0033

Sequence	switch fluorescence ratio
GTCTAGAAAG	0.985 ± 0.016
ATCTTGGGGC	0.984 ± 0.023
CGAAGAGGGA	0.9864 ± 0.0081
ATTTGTTCTG	0.962 ± 0.038
TTTTCATGGG	0.995 ± 0.013
AACCCACATC	1.303 ± 0.002
GTGGACCGGA	1.06 ± 0.012
TCGGTTTAGG	1.011 ± 0.0076
GTAGGGGGTC	1.01 ± 0.027
CGGCCATTCG	0.982 ± 0.021
TCTGGGGCGT	1.007 ± 0.0086
CATGATTTAT	1 ± 0.054
AAGTTCGTGC	1.02 ± 0.058
TATTAGTAAT	1.002 ± 0.0032
CCTGGGTTAT	1.02 ± 0.011
ATGCGTGTTT	1.003 ± 0.0014
TCCGGGCAGG	1.14 ± 0.023
GATGGGGGGT	1 ± 0.022
GGAGGCCCCA	0.996 ± 0.033
CGGGTATTGC	1.03 ± 0.011
ACGGGCGGTC	1.01 ± 0.015
AGCATAGAGG	1.03 ± 0.03
GAGAAATGCG	1.03 ± 0.012
GACGGGCAAG	1.02 ± 0.053
CAGGCTGGAC	1.06 ± 0.046
